The supplement of paper PMC9112550, “Optimization of the antimicrobial peptide Bac7 by deep mutational scanning” (BMC Biology, 2022)

Test system: Escherichia coli TOP10
Test: shrunken log2 fold change of peptide-encoding DNA abundance (4.5 h post-induction vs induction); higher = less antimicrobial activity (less host growth inhibition)
Details: time post-induction: 4.5 h; library: site-saturation at positions 5, 18, 19, 20
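Note: peptides expressed intracellularly from a pBAD plasmid library in pooled LB shake-flask culture, induced with 0.3% L-arabinose, DNA abundance read by NGS, three biological replicates, DESeq2 with apeglm shrinkage.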

For RRIRARPPRLPRPRPRPDFPPRP, the “shrunken log2 fold change” value was 0.102.
In the case of RRIRERPPRLPRPRPRPCYAPRP, the “shrunken log2 fold change” value is reported as -0.383.
With RRIRMRPPRLPRPRPRPTLHPRP the “shrunken log2 fold change” value was 0.294.
In the case of RRIRYRPPRLPRPRPRPDYMPRP, the “shrunken log2 fold change” value is reported as -0.761.
With RRIRSRPPRLPRPRPRPKYTPRP the “shrunken log2 fold change” value was -0.518.
For RRIRIRPPRLPRPRPRPKATPRP, the “shrunken log2 fold change” value was -0.141.
For RRIRIRPPRLPRPRPRPKWLPRP, the “shrunken log2 fold change” value was 0.0546.
With RRIRDRPPRLPRPRPRPGYTPRP the “shrunken log2 fold change” value was -0.127.
For RRIRWRPPRLPRPRPRPRDMPRP, the “shrunken log2 fold change” value was -0.255.
In the case of RRIRGRPPRLPRPRPRPSTKPRP, the “shrunken log2 fold change” value is reported as 0.261.
RRIRARPPRLPRPRPRPYEWPRP was tested, and the “shrunken log2 fold change” value was -0.0646.
With RRIRHRPPRLPRPRPRPDSWPRP the “shrunken log2 fold change” value was -0.0468.
For RRIRNRPPRLPRPRPRPKWTPRP, the “shrunken log2 fold change” value was -0.0342.
In the case of RRIRIRPPRLPRPRPRPYELPRP, the “shrunken log2 fold change” value is reported as -0.0687.
In the case of RRIRSRPPRLPRPRPRPAYIPRP, the “shrunken log2 fold change” value is reported as -0.0884.
With RRIRYRPPRLPRPRPRPCCAPRP the “shrunken log2 fold change” value was -0.437.
With RRIRRRPPRLPRPRPRPKYQPRP the “shrunken log2 fold change” value was -0.017.
With RRIRYRPPRLPRPRPRPQDPPRP the “shrunken log2 fold change” value was -0.0639.
RRIRVRPPRLPRPRPRPPWDPRP was tested, and the “shrunken log2 fold change” value was 0.445.
RRIRHRPPRLPRPRPRPENMPRP was tested, and the “shrunken log2 fold change” value was -0.042.
In the case of RRIRERPPRLPRPRPRPAYQPRP, the “shrunken log2 fold change” value is reported as 0.0953.
In the case of RRIRARPPRLPRPRPRPQIDPRP, the “shrunken log2 fold change” value is reported as 0.427.
For RRIRDRPPRLPRPRPRPARSPRP, the “shrunken log2 fold change” value was 0.0403.
In the case of RRIRHRPPRLPRPRPRPYSWPRP, the “shrunken log2 fold change” value is reported as -0.345.
For RRIRERPPRLPRPRPRPYRMPRP, the “shrunken log2 fold change” value was -0.113.
With RRIRHRPPRLPRPRPRPEWGPRP the “shrunken log2 fold change” value was 0.209.
In the case of RRIRGRPPRLPRPRPRPMHFPRP, the “shrunken log2 fold change” value is reported as -0.0109.
In the case of RRIRWRPPRLPRPRPRPDHQPRP, the “shrunken log2 fold change” value is reported as -0.197.
RRIRARPPRLPRPRPRPGCAPRP was tested, and the “shrunken log2 fold change” value was 0.947.
With RRIRERPPRLPRPRPRPNPPPRP the “shrunken log2 fold change” value was 0.181.
For RRIRNRPPRLPRPRPRPASTPRP, the “shrunken log2 fold change” value was -0.269.
In the case of RRIRPRPPRLPRPRPRPMQGPRP, the “shrunken log2 fold change” value is reported as -0.146.
With RRIRQRPPRLPRPRPRPKTGPRP the “shrunken log2 fold change” value was -0.151.
For RRIRPRPPRLPRPRPRPENMPRP, the “shrunken log2 fold change” value was -0.395.
RRIRRRPPRLPRPRPRPKAYPRP was tested, and the “shrunken log2 fold change” value was 0.224.
In the case of RRIRGRPPRLPRPRPRPRDNPRP, the “shrunken log2 fold change” value is reported as 0.0439.
With RRIRERPPRLPRPRPRPSVAPRP the “shrunken log2 fold change” value was 0.132.
With RRIRLRPPRLPRPRPRPMRYPRP the “shrunken log2 fold change” value was 0.0322.
RRIRFRPPRLPRPRPRPMNPPRP was tested, and the “shrunken log2 fold change” value was -0.0531.
With RRIRRRPPRLPRPRPRPDKSPRP the “shrunken log2 fold change” value was 0.00757.
RRIRGRPPRLPRPRPRPGMPPRP was tested, and the “shrunken log2 fold change” value was 0.406.
RRIRPRPPRLPRPRPRPSPEPRP was tested, and the “shrunken log2 fold change” value was -0.0109.
With RRIRNRPPRLPRPRPRPLPKPRP the “shrunken log2 fold change” value was 0.402.
For RRIRHRPPRLPRPRPRPTEQPRP, the “shrunken log2 fold change” value was -0.185.
With RRIRARPPRLPRPRPRPNQIPRP the “shrunken log2 fold change” value was 0.0775.
RRIRGRPPRLPRPRPRPCEHPRP was tested, and the “shrunken log2 fold change” value was 0.149.
RRIRQRPPRLPRPRPRPPERPRP was tested, and the “shrunken log2 fold change” value was 0.0424.
In the case of RRIRQRPPRLPRPRPRPTILPRP, the “shrunken log2 fold change” value is reported as 0.939.
With RRIRDRPPRLPRPRPRPGMQPRP the “shrunken log2 fold change” value was 0.165.
For RRIRHRPPRLPRPRPRPVYIPRP, the “shrunken log2 fold change” value was -0.0204.
For RRIRGRPPRLPRPRPRPGEYPRP, the “shrunken log2 fold change” value was 0.3.
With RRIRHRPPRLPRPRPRPETCPRP the “shrunken log2 fold change” value was -0.0251.
RRIRWRPPRLPRPRPRPHQYPRP was tested, and the “shrunken log2 fold change” value was -0.29.
With RRIRGRPPRLPRPRPRPPILPRP the “shrunken log2 fold change” value was -0.0529.
For RRIRKRPPRLPRPRPRPQTYPRP, the “shrunken log2 fold change” value was -0.021.
For RRIRPRPPRLPRPRPRPTGFPRP, the “shrunken log2 fold change” value was 0.0273.
In the case of RRIRCRPPRLPRPRPRPKGIPRP, the “shrunken log2 fold change” value is reported as 0.0519.
For RRIRYRPPRLPRPRPRPAKWPRP, the “shrunken log2 fold change” value was 0.0339.
For RRIRWRPPRLPRPRPRPIMYPRP, the “shrunken log2 fold change” value was -0.0994.
In the case of RRIRNRPPRLPRPRPRPLAVPRP, the “shrunken log2 fold change” value is reported as 0.0686.
RRIRKRPPRLPRPRPRPQLGPRP was tested, and the “shrunken log2 fold change” value was 0.378.
RRIRFRPPRLPRPRPRPQCCPRP was tested, and the “shrunken log2 fold change” value was -0.067.
In the case of RRIRARPPRLPRPRPRPACPPRP, the “shrunken log2 fold change” value is reported as 0.255.
For RRIRYRPPRLPRPRPRPTKMPRP, the “shrunken log2 fold change” value was -0.22.
For RRIRNRPPRLPRPRPRPCFWPRP, the “shrunken log2 fold change” value was -0.0333.
For RRIRQRPPRLPRPRPRPNTVPRP, the “shrunken log2 fold change” value was -0.369.
RRIRFRPPRLPRPRPRPRFVPRP was tested, and the “shrunken log2 fold change” value was 0.181.
With RRIRLRPPRLPRPRPRPCVCPRP the “shrunken log2 fold change” value was -0.00623.
For RRIRKRPPRLPRPRPRPSPSPRP, the “shrunken log2 fold change” value was 0.452.
RRIRARPPRLPRPRPRPEQMPRP was tested, and the “shrunken log2 fold change” value was 1.06.
For RRIRWRPPRLPRPRPRPCMCPRP, the “shrunken log2 fold change” value was -0.0735.
With RRIRDRPPRLPRPRPRPWMSPRP the “shrunken log2 fold change” value was -0.376.
In the case of RRIRYRPPRLPRPRPRPLQSPRP, the “shrunken log2 fold change” value is reported as 0.00494.
With RRIRIRPPRLPRPRPRPDPTPRP the “shrunken log2 fold change” value was -0.0575.
RRIRHRPPRLPRPRPRPFWVPRP was tested, and the “shrunken log2 fold change” value was -0.00136.
With RRIRHRPPRLPRPRPRPDEVPRP the “shrunken log2 fold change” value was -0.00134.
For RRIRTRPPRLPRPRPRPRIMPRP, the “shrunken log2 fold change” value was -0.254.
For RRIRYRPPRLPRPRPRPSYHPRP, the “shrunken log2 fold change” value was -1.21.
For RRIRSRPPRLPRPRPRPVMLPRP, the “shrunken log2 fold change” value was -0.112.
For RRIRKRPPRLPRPRPRPCYTPRP, the “shrunken log2 fold change” value was -0.0178.
For RRIRRRPPRLPRPRPRPRYCPRP, the “shrunken log2 fold change” value was 0.216.
For RRIRDRPPRLPRPRPRPPAHPRP, the “shrunken log2 fold change” value was 0.56.
With RRIRQRPPRLPRPRPRPQGLPRP the “shrunken log2 fold change” value was 0.0739.
With RRIRMRPPRLPRPRPRPQPTPRP the “shrunken log2 fold change” value was 0.868.
In the case of RRIRYRPPRLPRPRPRPKFAPRP, the “shrunken log2 fold change” value is reported as -0.44.
With RRIRGRPPRLPRPRPRPYIPPRP the “shrunken log2 fold change” value was -0.801.
RRIRGRPPRLPRPRPRPQDIPRP was tested, and the “shrunken log2 fold change” value was -0.398.
For RRIRGRPPRLPRPRPRPVLEPRP, the “shrunken log2 fold change” value was 0.795.
For RRIRCRPPRLPRPRPRPYVAPRP, the “shrunken log2 fold change” value was -0.858.
In the case of RRIRSRPPRLPRPRPRPFWVPRP, the “shrunken log2 fold change” value is reported as 0.106.
For RRIRTRPPRLPRPRPRPQGTPRP, the “shrunken log2 fold change” value was 0.0402.
